Test results taken from the supplement of paper PMC11811203.

B1: THAP1; numbered along this chain (parent)
chain: MVQSCSAYGCKNRYDKDKPVSFHKFPLTRPSLCKEWEAAVRRKNFKPTKYSSICSEHFTPDCFKRECNNKLLKENAVPTIFLCTEPHDKKEDLLEPQEQLPPPPLPPPVSQVDAAIGLLMPPLQTPVNLSVFCDHNYTVEDTMHQRKRIHQLEQQVEKLRKKLKTAQQRCRRQERQLEKLKEVVHFQKEKDDVSERGYVILPNDYFEIVEVPA

Variants of: B1
Assay: THAP1 transcriptional activity (GFP+/GFP- enrichment relative to wild-type constructs) (ratio to WT); higher = more THAP1 activity (PSMB5 reporter activation)
Conditions: with PSMB5 promoter-GFP reporter
Summary of the method: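 Activity values are replicate-mean bright/dim read fold changes divided by the mean of wild-type synonymous constructs. They come from a human THAP1 site-saturation library (residues 2–213, each changed to all 20 amino acids) delivered by lentivirus at MOI ~0.3, in duplicate, into THAP1-knockout HEK-293T cells with mClover3 at endogenous PSMB5. BFP+ cells were sorted into GFP-dim and GFP-bright bins after five days, and variants were counted by Illumina sequencing of genomic DNA amplicons.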

THAP1 transcriptional activity, by site and new letter:
C83: Q 3.29 | D 2.06 | I 1.18 | S 1.05 | H 2.25 | T 1.67 | Y 2.11 | E 0.913 | F 1.21 | P 0.676 | R 1.54 | V 1.41 | N 1.13 | G 1.18 | M 0.953 | K 1
L94: Y 1.34 | R 2.34 | S 1.71 | E 1.42 | M 1.84 | T 1.14 | G 1.56 | A 1.59 | C 0.962 | V 1.47 | D 1.28 | I 2.23 | W 0.914 | P 1.67
P96: I 0.683 | H 0.971 | C 0.965 | E 0.84 | R 1.45 | W 0.452 | F 0.885 | S 1.72 | D 1.15 | L 1.58 | K 1.37 | Q 0.834 | V 0.729 | T 1.6 | N 2.72 | G 1.55 | A 1.82
L100: G 0.906 | C 0.796 | K 1.18 | H 0.606 | D 1.66 | I 1.56 | R 1.46 | A 1.25 | M 2.37 | P 1.9 | Q 1.41
Q99: D 0.731 | W 0.514 | S 0.884 | V 0.773 | E 1.22 | H 1.07 | C 0.535 | K 1.5 | I 1.32 | A 0.795 | T 1.16 | R 1.3 | L 1.11 | G 1.87 | N 2.66 | F 0.667 | P 1.81
D88: Y 0.858 | W 0.937 | C 0.815 | H 0.413 | T 0.582 | N 0.665 | L 1.3 | M 0.615 | V 0.781 | K 1.56 | I 0.371 | Q 1.12 | E 1.04 | F 0.918 | A 0.554 | S 1.92
E98: A 1.51 | Y 0.675 | C 0.653 | N 1.21 | G 1.03 | V 1.56 | F 0.462 | L 0.875 | H 0.824 | P 0.816 | S 1.19 | W 0.567 | K 1.43 | R 0.908 | Q 1.69 | D 1.77 | T 1.66 | I 1.74 | M 0.62
F81: Y 0.214 | C 0.223 | L 0.224 | Q 0.206 | V 0.312 | A 0.367 | T 0.207 | G 0.402 | I 0.536 | P 0.275 | R 0.298 | D 0.125 | N 0.75 | S 0.443 | M 0.341 | H 0.525 | E 0.405
E91: D 1.04 | S 1.71 | A 0.844 | M 0.596 | T 0.885 | P 0.793 | G 1.01 | V 0.513 | W 0.619 | F 0.403 | Y 0.85 | K 2.46 | N 0.857 | I 0.999 | Q 1.02 | L 0.546
P86: A 0.874 | Y 0.685 | I 2.01 | V 1.04 | H 0.865 | N 0.592 | W 0.533 | E 2.07 | G 0.464 | S 0.97 | F 0.921 | L 0.608 | C 0.542 | R 0.766 | M 2.06 | K 0.623 | T 0.609
E95: Y 1.04 | P 1.22 | M 0.897 | G 1.26 | L 0.979 | H 1.29 | K 1.66 | I 1.13 | D 1.16 | R 1.65 | S 1.02 | V 0.815 | N 1.31 | A 1.46 | Q 1.81 | C 1.23
K90: F 0.963 | R 0.598 | G 1.6 | H 0.995 | S 1.77 | A 1.95 | I 1.52 | P 1.06 | E 2.91 | T 1.43 | Q 2.35 | N 1.49 | L 0.82 | Y 0.498 | M 1.03 | W 0.775 | D 0.818 | C 1.03
Q97: Y 0.765 | F 1.2 | D 1.45 | I 2.53 | W 0.632 | N 0.877 | R 0.945 | V 0.752 | H 0.853 | T 1.88 | A 0.83 | L 1.55 | C 1.33 | M 1.09 | P 1.25 | K 0.467 | S 0.872 | E 1.24 | G 0.874
K89: W 0.592 | M 0.476 | D 1.33 | N 1.86 | A 0.888 | F 1.17 | C 1.4 | T 1.3 | R 0.657 | E 1.6 | I 1.1 | H 1.44 | S 2.9 | P 0.989 | G 1.41 | V 1.41 | Q 1.32 | L 1.64
H87: V 1.56 | T 2.56 | M 2.74 | P 3.55 | A 1.39 | N 2.68 | C 1.84 | F 2.09 | Y 1.16 | E 2.22 | R 1.11 | W 1.17 | S 2.01 | K 1.13
L93: I 1.37 | Q 1.67 | M 0.701 | E 1.43 | T 1.14 | S 0.575 | F 0.989 | P 1.58 | V 1.15 | C 1.36 | D 1.14 | W 1.12 | Y 1.08 | N 1.51 | H 1.01 | A 1.26 | G 1.26 | K 0.898
I80: Q 0.628 | W 0.268 | V 0.963 | R 0.963 | S 0.272 | T 0.298
L82: Y 1.46 | S 0.94 | V 1.71 | P 2.38 | A 1.84 | C 0.521 | M 0.668 | Q 1.59 | T 2.19 | K 0.792 | H 1.27 | G 1.31 | N 1.88 | E 1.33 | W 2.23 | R 0.825 | D 1.34
E85: D 0.708 | H 0.704 | S 1.35 | V 0.702 | G 1.14 | R 0.558 | A 0.937 | M 0.346 | Y 0.792 | P 1.01 | C 0.285 | W 0.155 | F 0.389 | Q 1.16 | I 1.04 | L 0.328 | T 0.594
T84: I 0.739 | P 1.44 | Y 1.82 | H 0.92 | E 4.49 | G 0.785 | F 1.21 | S 0.852 | R 1.39 | C 0.907 | W 1.97 | Q 1.65 | L 1.48 | K 2.57 | M 1.23 | D 0.604
D92: R 1.57 | F 0.641 | P 1.64 | A 1.55 | G 0.763 | Y 0.942 | V 0.743 | M 0.739 | C 0.866 | K 1.22 | N 1.64 | W 0.658 | T 0.984 | I 2.59 | E 1.44
